{"source": "paper PMC8442604", "about": "(Frontiers in Immunology, 2021)", "key": {"[1]": {"target": "T1, SARS-CoV-2 RBD protein (321–591) (SARS-CoV-2, Wuhan-Hu-1 (MN908947), UniProt P0DTC2)", "experiment": "cell-based or functional assay"}, "[2]": {"target": "T1, SARS-CoV-2 RBD protein (321–591)", "experiment": "SPR", "details": "both partners purified"}}, "data": [{"binder": "S309H-XG81L (antibody, V domains shown, also called rAb S309H-XG81L) VH: not shown VL: DIQMTQSPSSLSASVGDRVTITCRASQSISSSLNWYQQKPGKAPKLLIYAASNLQSGVPSRFSGSGSGTDFTLTISSLQPEDFATYYCQQSFSTLFTFGPGTKVDLK", "values": [{"measurement": "IC50 of neutralisation of authentic SARS-CoV-2 on Vero E6 cells (CPE assay)", "setting": "[1]", "result": 1.25, "unit": "µg/mL"}, {"measurement": "Kd", "setting": "[2]", "result": 21.1, "unit": "nM"}]}]}
